Measured values reported in patent US20220339270A1 (published 2022).

Tests used:
[1] = target: T1, extracellular tau in the form of paired helical filaments (ePHF tau) (UniProt P10636-8 1-441, limits assumed); experiment: ePHF tau ELISA, ePHF coated; antibody at 166.7 ng/ml; anti-mouse-HRP
T1 construct: Aggregated, hyperphosphorylated tau preparation; not a single defined polypeptide

[2] = target: T1, extracellular tau in the form of paired …; experiment: ePHF tau ELISA, ePHF coated; antibody at 18.5 ng/ml; anti-mouse-HRP
[3] = target: T1, extracellular tau in the form of paired …; experiment: ePHF tau ELISA, ePHF coated; antibody at 500.0 ng/ml; anti-mouse-HRP
[4] = target: T1, extracellular tau in the form of paired …; experiment: ePHF tau ELISA, ePHF coated; antibody at 55.6 ng/ml; anti-mouse-HRP
[5] = target: T1, extracellular tau in the form of paired …; experiment: ePHF tau ELISA, ePHF coated; antibody at 2.1 ng/ml; anti-mouse-HRP
[6] = target: T1, extracellular tau in the form of paired …; experiment: ePHF tau ELISA, ePHF coated; antibody at 1000.0 ng/ml; anti-mouse-HRP
[7] = target: T1, extracellular tau in the form of paired …; experiment: ePHF tau ELISA, ePHF coated; antibody at 6.2 ng/ml; anti-mouse-HRP
[8] = target: T1, extracellular tau in the form of paired …; experiment: ePHF tau ELISA, ePHF coated; antibody at 0.7 ng/ml; anti-mouse-HRP
[9] = target: T2, wild-type tau (441 amino acids; tau441; NP_005901.2) (human, UniProt P10636 1-758); experiment: wild-type tau ELISA, ExpiCHO supernatant
T2 construct: Unphosphorylated recombinant tau441 used in the wild-type tau ELISA; also called wt tau441; wtTau
T2 sequence (P10636 other isoform, or with tags, fused parts or gaps limits assumed): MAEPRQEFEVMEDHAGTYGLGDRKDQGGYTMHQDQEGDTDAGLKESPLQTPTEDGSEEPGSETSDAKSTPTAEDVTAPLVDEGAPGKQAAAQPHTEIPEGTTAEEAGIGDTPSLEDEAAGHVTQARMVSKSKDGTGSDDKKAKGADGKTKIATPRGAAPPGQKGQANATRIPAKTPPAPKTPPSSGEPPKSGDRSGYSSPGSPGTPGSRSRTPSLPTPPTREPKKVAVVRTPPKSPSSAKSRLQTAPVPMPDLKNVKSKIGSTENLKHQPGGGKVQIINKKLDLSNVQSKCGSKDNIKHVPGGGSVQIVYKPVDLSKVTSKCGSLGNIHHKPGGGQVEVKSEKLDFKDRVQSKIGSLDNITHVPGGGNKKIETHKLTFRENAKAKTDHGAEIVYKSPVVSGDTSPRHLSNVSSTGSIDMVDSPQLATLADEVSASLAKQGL

[10] = target: T2, wild-type tau (441 amino acids; tau441; …); experiment: wtTau ELISA

T1 sequence (P10636 other isoform, or with tags, fused parts or gaps limits assumed): as above

| Binder | OD450 [1] | OD450 [2] | OD450 [3] | OD450 [4] | OD450 [5] | OD450 [6] | OD450 [7] | OD450 [8] | binding result [9] | further results |
| --- | --- | --- | --- | --- | --- | --- | --- | --- | --- | --- |
| anti-tau antibody MC1 expressed from viral genome construct MC1HF.F2AL (TAU_ITR72; SEQ ID NO: 2061) (antibody, V domains shown) VH: QVQLQQSGAELMKPGASVKISCKATGYTFSNYWIEWVKQRPGHGLEWIGEILPGSDSIKYNENFKGKATFTADTSSNTAYMQLSSLTSEDSAVYYCARRGNYPDYWGQGTTLTVSS VL: DVVMTQTPLSLPVSLGDQASISCRSSQSLVHSNGNTYLHWYLQKPGQSPKLLIYKVSNRFSGVPDRFSGSGSGTDFTLKISRVEAEDLGVYFCSQSTHVPLTFGAGTKLELKR | 0.7 OD450 | 0.3 OD450 | 1 OD450 | 0.5 OD450 | 0.1 OD450 | 1.1 OD450 | 0.2 OD450 | 0.1 OD450 | – | – |
| anti-tau antibody MC1 expressed from viral genome construct MC1HF.P2AL (TAU_ITR73; SEQ ID NO: 2062) (antibody, V domains shown) VH: QVQLQQSGAELMKPGASVKISCKATGYTFSNYWIEWVKQRPGHGLEWIGEILPGSDSIKYNENFKGKATFTADTSSNTAYMQLSSLTSEDSAVYYCARRGNYPDYWGQGTTLTVSS VL: DVVMTQTPLSLPVSLGDQASISCRSSQSLVHSNGNTYLHWYLQKPGQSPKLLIYKVSNRFSGVPDRFSGSGSGTDFTLKISRVEAEDLGVYFCSQSTHVPLTFGAGTKLELKR | 0.6 OD450 | 0.2 OD450 | 0.9 OD450 | 0.4 OD450 | 0.1 OD450 | 0.9 OD450 | 0.1 OD450 | 0.1 OD450 | – | – |
| anti-tau antibody MC1 expressed from viral genome construct MC1LF.F2AH (TAU_ITR78; SEQ ID NO: 2067) (antibody, V domains shown) VH: QVQLQQSGAELMKPGASVKISCKATGYTFSNYWIEWVKQRPGHGLEWIGEILPGSDSIKYNENFKGKATFTADTSSNTAYMQLSSLTSEDSAVYYCARRGNYPDYWGQGTTLTVSS VL: DVVMTQTPLSLPVSLGDQASISCRSSQSLVHSNGNTYLHWYLQKPGQSPKLLIYKVSNRFSGVPDRFSGSGSGTDFTLKISRVEAEDLGVYFCSQSTHVPLTFGAGTKLELKR | 0.7 OD450 | 0.2 OD450 | 1 OD450 | 0.4 OD450 | 0.1 OD450 | 1.1 OD450 | 0.1 OD450 | 0.1 OD450 | – | – |
| anti-tau antibody MC1 expressed from viral genome construct MC1LF.P2AH (TAU_ITR83; SEQ ID NO: 2072) (antibody, V domains shown) VH: QVQLQQSGAELMKPGASVKISCKATGYTFSNYWIEWVKQRPGHGLEWIGEILPGSDSIKYNENFKGKATFTADTSSNTAYMQLSSLTSEDSAVYYCARRGNYPDYWGQGTTLTVSS VL: DVVMTQTPLSLPVSLGDQASISCRSSQSLVHSNGNTYLHWYLQKPGQSPKLLIYKVSNRFSGVPDRFSGSGSGTDFTLKISRVEAEDLGVYFCSQSTHVPLTFGAGTKLELKR | 0.2 OD450 | 0.1 OD450 | 0.4 OD450 | 0.1 OD450 | 0.1 OD450 | 0.6 OD450 | 0.1 OD450 | 0.1 OD450 | – | – |
| anti-tau antibody MC1 expressed from viral genome construct MC1LP2AH (TAU_ITR82; SEQ ID NO: 2071) (antibody, V domains shown) VH: QVQLQQSGAELMKPGASVKISCKATGYTFSNYWIEWVKQRPGHGLEWIGEILPGSDSIKYNENFKGKATFTADTSSNTAYMQLSSLTSEDSAVYYCARRGNYPDYWGQGTTLTVSS VL: DVVMTQTPLSLPVSLGDQASISCRSSQSLVHSNGNTYLHWYLQKPGQSPKLLIYKVSNRFSGVPDRFSGSGSGTDFTLKISRVEAEDLGVYFCSQSTHVPLTFGAGTKLELKR | 0.4 OD450 | 0.1 OD450 | 0.7 OD450 | 0.2 OD450 | 0.1 OD450 | 0.8 OD450 | 0.1 OD450 | 0.1 OD450 | – | – |
| IPN002 antibody expressed from CAG-IPN002-HF.T2AL (TAU_ITR1) (antibody, V domains shown) VH: EVHLVESGGALVKPGGSLKLSCAASGFSFSKYGMSWVRQTPDKRLEWVATISSSGSRTYYPDSVKGQFTISRDNAKNTLYLQMSSLKSEDTAMYYCSISWDGAMDYWGQGTSVTVSS VL: DVLMTQTPLSLPVSLGDQASISCKSSQSIVHSNGNTYLEWYLQKPGQSPKLLVYKVSNRFSGVPDRFSGSGSGTDFTLKISRVEAEDLGTYYCFQGSLVPWAFGGGTKLEIK | – | – | – | – | – | – | – | – | binds | – |
| IPN002 antibody expressed from CB6-IPN002-LT2AH (TAU_ITR87) (antibody, V domains shown, Full antibody) VH: EVHLVESGGALVKPGGSLKLSCAASGFSFSKYGMSWVRQTPDKRLEWVATISSSGSRTYYPDSVKGQFTISRDNAKNTLYLQMSSLKSEDTAMYYCSISWDGAMDYWGQGTSVTVSS VL: DVLMTQTPLSLPVSLGDQASISCKSSQSIVHSNGNTYLEWYLQKPGQSPKLLVYKVSNRFSGVPDRFSGSGSGTDFTLKISRVEAEDLGTYYCFQGSLVPWAFGGGTKLEIK | – | – | – | – | – | – | – | – | binds | – |
| IPN002 Fab_ext expressed from TAU_ITR124 (CBA, hGbin, HF.T2AL) (Fab, V domains shown) VH: EVHLVESGGALVKPGGSLKLSCAASGFSFSKYGMSWVRQTPDKRLEWVATISSSGSRTYYPDSVKGQFTISRDNAKNTLYLQMSSLKSEDTAMYYCSISWDGAMDYWGQGTSVTVSS VL: DVLMTQTPLSLPVSLGDQASISCKSSQSIVHSNGNTYLEWYLQKPGQSPKLLVYKVSNRFSGVPDRFSGSGSGTDFTLKISRVEAEDLGTYYCFQGSLVPWAFGGGTKLEIK | – | – | – | – | – | – | – | – | – | binding result [10]: binds |
| IPN002 antibody expressed from CAG-IPN002-LT2AH (TAU_ITR10) (antibody, V domains shown, Full antibody) VH: EVHLVESGGALVKPGGSLKLSCAASGFSFSKYGMSWVRQTPDKRLEWVATISSSGSRTYYPDSVKGQFTISRDNAKNTLYLQMSSLKSEDTAMYYCSISWDGAMDYWGQGTSVTVSS VL: DVLMTQTPLSLPVSLGDQASISCKSSQSIVHSNGNTYLEWYLQKPGQSPKLLVYKVSNRFSGVPDRFSGSGSGTDFTLKISRVEAEDLGTYYCFQGSLVPWAFGGGTKLEIK | – | – | – | – | – | – | – | – | binds | – |
| IPN002 antibody expressed from CAG-IPN002-LF2AH (TAU_ITR9) (antibody, V domains shown) VH: EVHLVESGGALVKPGGSLKLSCAASGFSFSKYGMSWVRQTPDKRLEWVATISSSGSRTYYPDSVKGQFTISRDNAKNTLYLQMSSLKSEDTAMYYCSISWDGAMDYWGQGTSVTVSS VL: DVLMTQTPLSLPVSLGDQASISCKSSQSIVHSNGNTYLEWYLQKPGQSPKLLVYKVSNRFSGVPDRFSGSGSGTDFTLKISRVEAEDLGTYYCFQGSLVPWAFGGGTKLEIK | – | – | – | – | – | – | – | – | binds | – |
| IPN002 antibody expressed from CB6-IPN002-HF.T2AL (TAU_ITR4) (antibody, V domains shown) VH: EVHLVESGGALVKPGGSLKLSCAASGFSFSKYGMSWVRQTPDKRLEWVATISSSGSRTYYPDSVKGQFTISRDNAKNTLYLQMSSLKSEDTAMYYCSISWDGAMDYWGQGTSVTVSS VL: DVLMTQTPLSLPVSLGDQASISCKSSQSIVHSNGNTYLEWYLQKPGQSPKLLVYKVSNRFSGVPDRFSGSGSGTDFTLKISRVEAEDLGTYYCFQGSLVPWAFGGGTKLEIK | – | – | – | – | – | – | – | – | binds | – |
| IPN002 Fab expressed from TAU_ITR123 (CBA, hGbin, HF.T2AL) (Fab, V domains shown) VH: EVHLVESGGALVKPGGSLKLSCAASGFSFSKYGMSWVRQTPDKRLEWVATISSSGSRTYYPDSVKGQFTISRDNAKNTLYLQMSSLKSEDTAMYYCSISWDGAMDYWGQGTSVTVSS VL: DVLMTQTPLSLPVSLGDQASISCKSSQSIVHSNGNTYLEWYLQKPGQSPKLLVYKVSNRFSGVPDRFSGSGSGTDFTLKISRVEAEDLGTYYCFQGSLVPWAFGGGTKLEIK | – | – | – | – | – | – | – | – | – | binding result [10]: binds |
| IPN002 antibody expressed from CB6-IPN002-LF2AH (TAU_ITR11) (antibody, V domains shown) VH: EVHLVESGGALVKPGGSLKLSCAASGFSFSKYGMSWVRQTPDKRLEWVATISSSGSRTYYPDSVKGQFTISRDNAKNTLYLQMSSLKSEDTAMYYCSISWDGAMDYWGQGTSVTVSS VL: DVLMTQTPLSLPVSLGDQASISCKSSQSIVHSNGNTYLEWYLQKPGQSPKLLVYKVSNRFSGVPDRFSGSGSGTDFTLKISRVEAEDLGTYYCFQGSLVPWAFGGGTKLEIK | – | – | – | – | – | – | – | – | binds | – |
| IPN002 antibody expressed from CAG-IPN002-HF.F2AL (TAU_ITR2) (antibody, V domains shown) VH: EVHLVESGGALVKPGGSLKLSCAASGFSFSKYGMSWVRQTPDKRLEWVATISSSGSRTYYPDSVKGQFTISRDNAKNTLYLQMSSLKSEDTAMYYCSISWDGAMDYWGQGTSVTVSS VL: DVLMTQTPLSLPVSLGDQASISCKSSQSIVHSNGNTYLEWYLQKPGQSPKLLVYKVSNRFSGVPDRFSGSGSGTDFTLKISRVEAEDLGTYYCFQGSLVPWAFGGGTKLEIK | – | – | – | – | – | – | – | – | binds | – |
| IPN002 Fab expressed from TAU_ITR127 (CAG, HF.T2AL) (Fab, V domains shown) VH: EVHLVESGGALVKPGGSLKLSCAASGFSFSKYGMSWVRQTPDKRLEWVATISSSGSRTYYPDSVKGQFTISRDNAKNTLYLQMSSLKSEDTAMYYCSISWDGAMDYWGQGTSVTVSS VL: DVLMTQTPLSLPVSLGDQASISCKSSQSIVHSNGNTYLEWYLQKPGQSPKLLVYKVSNRFSGVPDRFSGSGSGTDFTLKISRVEAEDLGTYYCFQGSLVPWAFGGGTKLEIK | – | – | – | – | – | – | – | – | – | binding result [10]: binds |
| IPN002 antibody expressed from CB6-IPN002-HF.F2AL (TAU_ITR3) (antibody, V domains shown) VH: EVHLVESGGALVKPGGSLKLSCAASGFSFSKYGMSWVRQTPDKRLEWVATISSSGSRTYYPDSVKGQFTISRDNAKNTLYLQMSSLKSEDTAMYYCSISWDGAMDYWGQGTSVTVSS VL: DVLMTQTPLSLPVSLGDQASISCKSSQSIVHSNGNTYLEWYLQKPGQSPKLLVYKVSNRFSGVPDRFSGSGSGTDFTLKISRVEAEDLGTYYCFQGSLVPWAFGGGTKLEIK | – | – | – | – | – | – | – | – | binds | – |
